From patent publication US20150087577A1 (POLYPHOR, published 2015) come the findings set out here.

Bridges are numbered along the chain shown (N, C = ends). [ ]: non-standard residue; d: D form. 2Nal = N[C@@H](Cc1ccc2ccccc2c1)C(=O)O; Cit = NC(=O)NCCC[C@H](N)C(=O)O; Dab = NCC[C@H](N)C(=O)O

The chains are these.
B1: Example 131 (peptide)
peptide: cyclo(YRTCRG[dP]RR[2Nal]CY[Cit]K[dP]P)
modifications: disulfide 4-11
SMILES: C[C@@H](O)[C@@H]1NC(=O)[C@H](CCCNC(=N)N)NC(=O)[C@H](Cc2ccc(O)cc2)NC(=O)[C@@H]2CCCN2C(=O)[C@H]2CCCN2C(=O)[C@H](CCCCN)NC(=O)[C@H](CCCNC(N)=O)NC(=O)[C@H](Cc2ccc(O)cc2)NC(=O)[C@@H]2CSSC[C@H](NC1=O)C(=O)N[C@@H](CCCNC(=N)N)C(=O)NCC(=O)N1CCC[C@@H]1C(=O)N[C@@H](CCCNC(=N)N)C(=O)N[C@@H](CCCNC(=N)N)C(=O)N[C@@H](Cc1ccc3ccccc3c1)C(=O)N2
B2: Example 132 (peptide)
peptide: cyclo(YR[Cit]CRG[dP]RR[2Nal]CYTK[dP]P)
modifications: disulfide 4-11
SMILES: C[C@@H](O)[C@@H]1NC(=O)[C@H](Cc2ccc(O)cc2)NC(=O)[C@@H]2CSSC[C@H](NC(=O)[C@H](CCCNC(N)=O)NC(=O)[C@H](CCCNC(=N)N)NC(=O)[C@H](Cc3ccc(O)cc3)NC(=O)[C@@H]3CCCN3C(=O)[C@H]3CCCN3C(=O)[C@H](CCCCN)NC1=O)C(=O)N[C@@H](CCCNC(=N)N)C(=O)NCC(=O)N1CCC[C@@H]1C(=O)N[C@@H](CCCNC(=N)N)C(=O)N[C@@H](CCCNC(=N)N)C(=O)N[C@@H](Cc1ccc3ccccc3c1)C(=O)N2
B3: Example 130 (peptide)
peptide: cyclo(YRQCRG[dP]RR[2Nal]CY[Cit]K[dP]P)
modifications: disulfide 4-11
SMILES: N=C(N)NCCC[C@@H]1NC(=O)[C@@H]2CSSC[C@H](NC(=O)[C@H](Cc3ccc4ccccc4c3)NC(=O)[C@H](CCCNC(=N)N)NC(=O)[C@H](CCCNC(=N)N)NC(=O)[C@H]3CCCN3C(=O)CNC1=O)C(=O)N[C@@H](Cc1ccc(O)cc1)C(=O)N[C@@H](CCCNC(N)=O)C(=O)N[C@@H](CCCCN)C(=O)N1CCC[C@@H]1C(=O)N1CCC[C@H]1C(=O)N[C@@H](Cc1ccc(O)cc1)C(=O)N[C@@H](CCCNC(=N)N)C(=O)N[C@@H](CCC(N)=O)C(=O)N2
B4: Example 134 (peptide)
peptide: cyclo(YR[Cit]CRG[dP][Dab]R[2Nal]CY[Cit]K[dP]P)
modifications: disulfide 4-11
SMILES: N=C(N)NCCC[C@@H]1NC(=O)[C@@H]2CSSC[C@H](NC(=O)[C@H](Cc3ccc4ccccc4c3)NC(=O)[C@H](CCCNC(=N)N)NC(=O)[C@H](CCN)NC(=O)[C@H]3CCCN3C(=O)CNC1=O)C(=O)N[C@@H](Cc1ccc(O)cc1)C(=O)N[C@@H](CCCNC(N)=O)C(=O)N[C@@H](CCCCN)C(=O)N1CCC[C@@H]1C(=O)N1CCC[C@H]1C(=O)N[C@@H](Cc1ccc(O)cc1)C(=O)N[C@@H](CCCNC(=N)N)C(=O)N[C@@H](CCCNC(N)=O)C(=O)N2
B5: Example 133 (peptide)
peptide: cyclo(YR[Cit]CRG[dP]RR[2Nal]CYTK[dP]P)
modifications: disulfide 4-11
SMILES: C[C@@H](O)[C@@H]1NC(=O)[C@H](Cc2ccc(O)cc2)NC(=O)[C@@H]2CSSC[C@H](NC(=O)[C@H](CCCNC(N)=O)NC(=O)[C@H](CCCNC(=N)N)NC(=O)[C@H](Cc3ccc(O)cc3)NC(=O)[C@@H]3CCCN3C(=O)[C@H]3CCCN3C(=O)[C@H](CCCCN)NC1=O)C(=O)N[C@@H](CCCNC(=N)N)C(=O)NCC(=O)N1CCC[C@@H]1C(=O)N[C@@H](CCCNC(=N)N)C(=O)N[C@@H](CCCNC(=N)N)C(=O)N[C@@H](Cc1ccc3ccccc3c1)C(=O)N2

The target in this test is human CXCR4 (human, UniProt P61073 1-352). Nature of the test: cell-based or functional assay.
Sequence of human CXCR4 (P61073 whole entry): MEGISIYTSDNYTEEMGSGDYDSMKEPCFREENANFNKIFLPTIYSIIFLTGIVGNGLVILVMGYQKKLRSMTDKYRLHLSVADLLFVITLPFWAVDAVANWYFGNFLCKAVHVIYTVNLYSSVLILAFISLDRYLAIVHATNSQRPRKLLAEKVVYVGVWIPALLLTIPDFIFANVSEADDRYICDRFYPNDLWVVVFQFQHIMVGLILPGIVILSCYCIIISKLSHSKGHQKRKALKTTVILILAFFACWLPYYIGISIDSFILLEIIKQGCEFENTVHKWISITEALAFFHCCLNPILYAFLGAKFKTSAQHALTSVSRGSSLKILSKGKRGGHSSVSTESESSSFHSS
Regarding B1, the “IC50 (nM) Ca2+ assay (method 2)” value is 2.4 nM.

As for B2, the “IC50 (nM) Ca2+ assay (method 2)” value came out at 1.9 nM.

As for B3, the “IC50 (nM) Ca2+ assay (method 2)” value was determined as 4.1 nM.

Take B4: the “IC50 (nM) Ca2+ assay (method 2)” value stood at 1.7 nM.

For the molecule B5, the “IC50 (nM) Ca2+ assay (method 2)” value was determined as 5.3 nM.
